From patent US20210283178A1 come the findings set out here.

In experiment [1] the target is AIQ-HLA-A2 complex (… peptide loaded on recombinant human HLA-A2:Ig fusion protein, DimerX I) (human). The experiment is described as follows: flow cytometry of CAR-T cells incubated with biotinylated AIQ-HLA-A2, then streptavidin-APC; 82.4% GFP+ APC- (lower right); untransduced T cells: 0.00% in the upper right quadrant.
Experiment [2] concerns the target SLL-HLA-A2 complex (NY-ESO-1 peptide … loaded on recombinant human HLA-A2:Ig fusion protein, DimerX I) (human). The experiment is described as follows: flow cytometry of CAR-T cells incubated with biotinylated SLL-HLA-A2, then streptavidin-APC; 82.6% GFP+ APC- (lower right); untransduced T cells: 0.04% in the upper right quadrant.
Experiment [3] concerns the target HLA-A2 alone (recombinant human HLA-A2:Ig fusion protein, DimerX I, without added peptide) (human). In words: flow cytometry of CAR-T cells incubated with biotinylated HLA-A2, then streptavidin-APC; 82.9% GFP+ APC- (lower right); untransduced T cells: 0.02% in the upper right quadrant.

As to “CD19 CAR expressed on human CD8+ T cells”, the % of cells in the upper right quadrant (GFP+ / streptavidin-APC+) in experiment [1] amounted to 0.17%; in experiment [2], 0.03%; in experiment [3], 0.13%.
